T1: human CD22, endogenous on Raji cells (human, UniProt P20273 20-847)
T1 construct: whole, on cells; Endogenous protein of the Raji cell line
T1 sequence (looked up): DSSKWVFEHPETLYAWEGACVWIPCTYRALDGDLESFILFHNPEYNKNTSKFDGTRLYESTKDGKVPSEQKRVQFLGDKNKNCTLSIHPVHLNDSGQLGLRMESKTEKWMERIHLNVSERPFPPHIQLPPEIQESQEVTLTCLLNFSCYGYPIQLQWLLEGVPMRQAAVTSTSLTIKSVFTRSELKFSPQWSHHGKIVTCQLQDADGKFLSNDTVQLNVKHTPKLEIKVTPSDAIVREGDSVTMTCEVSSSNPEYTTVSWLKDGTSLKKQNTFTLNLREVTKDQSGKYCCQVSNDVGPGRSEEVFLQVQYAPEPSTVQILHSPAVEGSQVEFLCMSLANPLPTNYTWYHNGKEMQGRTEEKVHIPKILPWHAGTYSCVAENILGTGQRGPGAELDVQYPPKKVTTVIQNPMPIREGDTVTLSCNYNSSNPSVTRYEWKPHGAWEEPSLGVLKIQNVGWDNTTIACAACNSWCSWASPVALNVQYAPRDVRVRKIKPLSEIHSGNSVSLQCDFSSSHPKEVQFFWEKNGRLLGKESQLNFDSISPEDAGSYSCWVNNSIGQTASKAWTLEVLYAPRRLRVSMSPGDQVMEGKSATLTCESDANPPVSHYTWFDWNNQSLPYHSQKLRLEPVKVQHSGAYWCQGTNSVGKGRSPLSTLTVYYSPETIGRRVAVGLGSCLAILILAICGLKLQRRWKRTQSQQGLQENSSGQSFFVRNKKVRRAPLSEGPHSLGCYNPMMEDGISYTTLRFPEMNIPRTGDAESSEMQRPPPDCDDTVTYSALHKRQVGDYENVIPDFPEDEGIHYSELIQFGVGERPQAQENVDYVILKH

T2: human CD22, full length, on CHO-K1-human CD22 2C4 cells (human, UniProt P20273 20-847)
T2 construct: Full-length human CD22 (NCBI NP_001762.2) stably transfected into CHO-K1
T2 sequence: T1 sequence (looked up)

T3: murine CD22 protein (ACROBiosystems, SI2-M52Ha) (murine, UniProt P35329 22-708)
T3 construct: extracellular domain; also called murine CD22-ECD; murine CD22-ECD-His
T3 sequence (looked up): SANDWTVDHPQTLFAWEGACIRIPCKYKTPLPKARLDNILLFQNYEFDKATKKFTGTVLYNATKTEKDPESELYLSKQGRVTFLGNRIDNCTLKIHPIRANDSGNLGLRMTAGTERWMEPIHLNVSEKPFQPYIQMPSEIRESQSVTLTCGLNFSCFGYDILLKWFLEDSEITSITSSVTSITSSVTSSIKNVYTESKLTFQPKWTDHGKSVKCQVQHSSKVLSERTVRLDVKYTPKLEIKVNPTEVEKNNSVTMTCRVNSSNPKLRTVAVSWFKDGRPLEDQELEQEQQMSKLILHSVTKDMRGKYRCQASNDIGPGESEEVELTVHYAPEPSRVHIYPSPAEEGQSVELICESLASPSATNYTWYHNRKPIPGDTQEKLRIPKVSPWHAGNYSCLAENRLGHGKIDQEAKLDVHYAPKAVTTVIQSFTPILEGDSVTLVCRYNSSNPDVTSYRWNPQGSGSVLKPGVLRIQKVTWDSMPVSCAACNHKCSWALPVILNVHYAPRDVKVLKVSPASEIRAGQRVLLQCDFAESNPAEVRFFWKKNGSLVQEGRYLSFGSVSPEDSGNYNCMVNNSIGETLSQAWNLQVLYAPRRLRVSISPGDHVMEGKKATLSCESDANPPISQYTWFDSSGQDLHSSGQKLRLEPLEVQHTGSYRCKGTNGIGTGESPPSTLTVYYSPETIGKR

B1: F1.192.1 human-murine chimeric antibody (antibody, human IgG1, kappa, V domains shown)
VH: AVQLQQSGVELVRPGASVKLSCTGSDFNIKEDYIHWVKQRPEQGLEWIGWIDPENGDTEYASKFQGKATITADTSSNTAYLQLSSLTSEDTAVYYCATYGSLDYWGQGTTLTVSS
VL: DIKMTQSPSSMYAFLGERVTITCKASQGINSFLTWFQQKPGKSPKTLIYRANRLVDGVPSRFSGSGSGQDYSLTISSLEYEDVGIYYCLQYDEFPRTFGGGTKLEIKR
notes: Chimeric, human IgG1 / kappa
B2: F1.172.13 human-murine chimeric antibody (antibody, human IgG1, kappa, V domains shown)
VH: QVTLKESGPGILQSSQTLSLTCSFSGFSLSTSGMGVSWIRQPSGKGLEWLAHIYWDDDKRYNPSLKSRLTISKDTSRNQVFLKITSVDTADTATYYCARAPPPNWDEYYFDYWGQGTTLTVSS
VL: DIQMTQSPASLSASVGETVTITCRASGNIHNSLAWYQQKQGKSPQLLVHNAKTLADGVPSRFSGSGSGTQYSLKINSLQPEDFGSYYCQHFWSTPPFGGGTKLEIKR
notes: Chimeric, human IgG1 / kappa
B3: F1.200.11 human-murine chimeric antibody (antibody, human IgG1, kappa, V domains shown)
VH: QNQLVQSGPELKKPGETVKISCKASGYTFTTAGMQWVQKMPGKGFKWIGWINTLSGEPKYAEDFKGRFAFSLETSATTAYLQISNLKNEDTATYFCARAYYSNLYWYFDVWGTGTTVTVSS
VL: DIVMTQSQKFMSTTVGDRVTITCKASQNVVTAVAWYQQKPGQSPKVLIYSASNRYSGVPDRFTGSGSGTDFTLTISNMHSEDLANYFCHQYSSYPFTFGSGTKLEIKR
notes: Chimeric, human IgG1 / kappa
B4: F1.245.2 human-murine chimeric antibody (antibody, human IgG1, kappa, V domains shown)
VH: EVQLQQSGAELVKPGASVKLSCTGSGFNIKDYYIHWVKQRTEQGLEWMGRIDPEDGETEYAPKFQDEATITSDTSSNTAYLQLSSLTYEDTAVYYCAREAAGYFYRGSSYGYFDVWGTGTTVTVSS
VL: DFQMTQTTSFLSASLGDRVTISCSASQDISNYLNWYQQKPDGTVKLLIYYTSSLHSGVPSRFSGSGSGTDYSLTISNLEPEDIATYYCQQYSMLPYTFGGGTKLEMER
notes: Chimeric, human IgG1 / kappa
B5: F1.60.9 human-murine chimeric antibody (antibody, human IgG1, kappa, V domains shown)
VH: QVQLKESGPGLVAPSQSLSITCTVSGLSLNNYGVSWVRQPPGKGLEWLGVIWGDGSTNYHSALISRLSISKDNSKSQVFLKLNSLHTDDTATYYCAINWGDYWGQGTTLIVSS
VL: DIKMTQSPSSMNASLGERVTITCKASQDINSYLSWFQQKPGKSPKILIYRANRLIDGVPSRFSGSGSGQDYSLTISSLEYEDMGIYYCLQYGVFPLTFGAGTKLELKR
notes: Chimeric, human IgG1 / kappa

In general, EC50 refers to the concentration at which the effect is half-maximal. The low end stands for an effect from little substance, the high end for a need for much substance.

In the first assay the target is T1, human CD22, endogenous on Raji cells. Kind of assay: FACS, Raji cells. From the text: (§1) The required cells were scale-up cultured in a T-75 cell culture flask to the logarithmic growth phase. For the adherent cell CHO-K1, the medium was aspirated, the cells were washed 2 times with PBS buffer, and then digested with trypsin. After the digestion was terminated, the cells were washed 2 times with PBS buffer. For suspension cell Raji, the medium supernatant was directly centrifuged and discarded, and the cell pellet was washed 2 times with PBS. After counting the cells in the previous step, the cell pellet was resuspended with [PBS+2% (w/w) BSA] blocking solution to 2×10⁶ cells/ml, and added to a 96-well FACS reaction plate at 50 μl/well, and then the chimeric antibody test sample was added at 50 μl/well, and incubated on ice for 2 hours. The mixture was centrifuged and washed 3 times with PBS buffer, Alexa Flour 488-labeled secondary antibody (purchased from Invitrogen, catalog number: A-11013) was added at 50 μl/well, and incubated on ice for 1 hour. The obtained mixture was centrifuged and washed 5 times with PBS, and FACS (FACS Canto™, purchased from BD Company) was used for detection and result analysis. Data analysis was performed by software (CellQuest) to obtain the mean fluorescence density (MFI)of the cells. And then software (GraphPad Prism8) was used for analysis, data fitting, and EC50 value calculation. […] The same method was used to detect the binding of the chimeric antibodies to endogenous CD22-negative cell MoLT4 cells (purchased from ATCC, CRL-1582) and CHO-K1 cells.
Background: Flow cytometry measures light scatter and fluorescence of single cells or particles in a stream.
On to B1, for which the EC50 is 0.37 nM and the “Maximum mean fluorescence intensity” value worked out at 24400 MFI.
For the molecule B2, the EC50 amounted to 0.17 nM and the “Maximum mean fluorescence intensity” value worked out at 23800 MFI.
In the case of B3, the response was half-maximal at 2.41 nM (EC50) and the “Maximum mean fluorescence intensity” value stood at 20800 MFI.
The corresponding values for B4 are 0.07 nM and 29900 MFI.
Regarding B5, the EC50 turned out to be 0.29 nM and the “Maximum mean fluorescence intensity” value came to 25300 MFI.

In a further assay the target is T2, human CD22, full length, on …. Description: FACS, CHO-K1-human CD22 2C4 cells.
Excerpt: as §1
Take B1: the midpoint of the response, the EC50, lay at 0.81 nM and the “Maximum mean fluorescence intensity” value was 27200 MFI.
The corresponding values for B2 are 0.59 nM and 33800 MFI.
On the same counts, the results for B3 are 11.2 nM and 23000 MFI.
The corresponding values for B4 are 0.33 nM and 43300 MFI.
With B5, the EC50 worked out at 0.61 nM and the “Maximum mean fluorescence intensity” value worked out at 30100 MFI.

In a further assay the target is T3, murine CD22 protein (ACROBiosystems, …). Kind of assay: ELISA, coated murine CD22, 10 nM Ab. The procedure: (§2) In order to detect the binding activity of CD22 human-murine chimeric antibodies to CD22 protein, the purified human CD22-ECD-His protein obtained in Example 2 was diluted with PBS to a final concentration of 2 μg/mL, and then added to 96-well ELISA plate at 100 μl/well. The plate was sealed with plastic film and incubated overnight at 4° C., the plate was washed 2 times with PBS the next day, and then a blocking solution [PBS+2% (w/w) BSA] was added for blocking at room temperature for 2 hours. […] After incubation at 37° C. for 2 hours, the plate was washed 3 times with PBS. HRP (horseradish peroxidase)-labeled secondary antibody (purchased from Sigma, catalog number: A0170) was added, and incubated at 37° C. for 2 hours, and the plate was washed 5 times with PBS. TMB substrate was added at 50 μl/well, and incubated at room temperature for 30 minutes, then a stop solution (1.0 N HCl) was added at 50 μl/well.
(§3) In order to detect the species cross-binding activity of the chimeric antibodies, an ELISA plate was coated with commercial murine CD22 protein (ACROBiosystems, catalog number: SI2-M52Ha) and monkey CD22 protein (ACROBiosystems, catalog number: SI2-R52Ha), respectively, and the ELISA detection was performed according to the method in Example 5.1.
Background: ELISA stands for enzyme-linked immunosorbent assay.
Take B1: the OD450 worked out at 0.08 OD450.
The same measure, in the same setting: as for B2, the figure is 0.06 OD450; as for B3, 0.06 OD450.
Still for that read-out and setting: as for B4, the figure is 0.07 OD450; as for B5, 0.06 OD450.

Another assay has the same target. Description: ELISA, coated murine CD22, 0.1 nM Ab. The procedure: as §2, §3
In turn, B1 registered an OD450 of 0.07 OD450.
The same measure, in the same setting: the value for B2 was 0.05 OD450; that for B3 was 0.05 OD450; that for B4 was 0.06 OD450.
Still for that read-out and setting: as for B5, the figure is 0.05 OD450.

Another assay has the same target. Kind of assay: ELISA, coated murine CD22, 100 nM Ab. The procedure: as §2, §3
In turn, B1 displayed an OD450 of 0.08 OD450.
The same measure, in the same setting: as for B2, the figure is 0.08 OD450; as for B3, 0.07 OD450.
On the same count and under the same terms, as for B4, the figure is 0.09 OD450; as for B5, 0.08 OD450.

A further assay has the same target. Kind of assay: ELISA, coated murine CD22, 0.01 nM Ab. The procedure: as §2, §3
Molecule B1 showed an OD450 of 0.07 OD450.
Same read-out and setting: the value for B2 was 0.05 OD450.
Regarding B3, the OD450 was 0.05 OD450.
On the same count and under the same terms, as for B4, the figure is 0.06 OD450.
On to B5, for which the OD450 was 0.06 OD450.

The next assay shares this target. Description: ELISA, coated murine CD22, 0.001 nM Ab. The procedure:
as §2, §3
With B1, the OD450 came out at 0.06 OD450.
Take B2: the OD450 was found to be 0.05 OD450.
As to B3, the OD450 is 0.05 OD450.
Turning to B4, the OD450 stood at 0.06 OD450.
The same measure, in the same setting: the value for B5 was 0.05 OD450.

A further assay shares this target. Kind of assay: ELISA, coated murine CD22, 0.0001 nM Ab. The procedure: as §2, §3
Molecule B1 had an OD450 of 0.07 OD450.
Same read-out and setting: the value for B2 was 0.06 OD450.
Regarding B3, the OD450 worked out at 0.05 OD450.
Still for that read-out and setting: as for B4, the figure is 0.07 OD450; as for B5, 0.06 OD450.

For a further assay the target is unchanged. Description: ELISA, coated murine CD22, 0.00001 nM Ab. The procedure: as §2, §3
As for B1, the OD450 worked out at 0.07 OD450.
Same read-out and setting: the value for B2 was 0.06 OD450; that for B3 was 0.06 OD450.
On the same count and under the same terms, as for B4, the figure is 0.06 OD450; as for B5, 0.06 OD450.
